In US20200071380A1, “COMBINATION THERAPIES COMPRISING SIRP ALPHA-BASED CHIMERIC PROTEINS” (Shattuck Labs, Inc., priority 2018, published 2020):

Experiments:
[1] = target: T1, murine CD40 (Mus musculus, UniProt P27512); assay: Murine CD40/NFκB-luciferase reporter in CHOK1 cells; format: cell-based
T1 construct: expressed in transfected cells; host or cells: CHO-K1
Experimental: Cells were cultured with a dose titration of recombinant human CD40L-his or SIRPα-Fc-CD40L, and luminescence was read on a luminometer after 6 hours. The left histograms are (−) Control, middle histograms are hCD40L-His and the right histograms are SIRPα-Fc-CD40L. […] CD8-depleted PBMC from 33-50 distinct human donors were cultured with media only, the neoantigen positive control KLH, the clinical stage non-activating control Exenatide, or 0.3, 3, 30, or 300 nM of SIRPα-Fc-CD40L. At 10 μg/ml on the X-axis, the samples are, top to bottom: hCD40L-Fc, SIRPα-Fc-CD40L, ahCD40 (HB14) ad (−) Control. […] The left histograms are (−) control, second from left are FC-mCD40L, second from right are anti-mCD40 (FGK4.5) and right are mSIRPα-Fc-CD40L.
The murine version of the CD40/NFκB-luciferase system was established in CHOK1 cells.

[2] = test system: peripheral blood cell populations; assay: Peripheral blood cell populations in treated mice; format: in vivo
Experimental: FIG. 22B is a graph showing RBCs and test agents that were incubated at 37° C. for 24 hours and then the media was assessed at OD490 for changes in absorbance due to hemoglobin being released from lysing RBCs. […] FIG. […] Cell populations were assessed by flow cytometry and included CD20+ B cells, CD110+, CD4+/CD11c+, and CD8+/CD11c+ dendritic cells.
Receptor occupancy was evaluated on circulating CD40+ lymphocytes.

[3] = test system: WEHI3 leukemia cells; assay: Murine phagocytosis assay, BMDMs with WEHI3 leukemia cells; format: cell-based
[4] = test system: splenic dendritic cells; assay: In vivo splenic dendritic cell activation; design: species or system mice; details: single IV dose; 6 or 24 hours, especially the 24 hour time point
Experimental: For each panel, the samples are (left to right): untreated, sheep RBCs, αCD47 (MIAP301), αSIRPα (P84), mSIRPα-Fc-CD40L, mSIRPα-Fc-CD40L (24 Hrs), and αCD47 (MIAP301) (24 hrs). FIG. 9B is a quantitation of in vivo dendritic cell activation corresponding to FIG. 9A. Shown is the absolute percent of CD4+ and CD8+ dendritic cells; also gated on CD11c and DC1R2. In FIG. 9B, for each panel, the samples are (left to right): untreated, sheep RBCs, αCD47 (MIAP301), αSIRPα (P84), SIRPα-Fc-CD40L (150 μg), SIRPα-Fc-CD40L (300 μg), SIRPα-Fc-CD40L (300 μg) (24 Hrs), and αCD47 (MIAP301) (24 hrs).
An in vivo assay to examine SIRPα/CD47 function in mice was describe in Yi et al., “Splenic Dendritic Cells Survey Red Blood Cells for Missing Self-CD47 to Trigger Adaptive Immune Responses. Immunity. 2015;43(4):764-75) (the contents of which is incorporated by reference in its entirety). This assay detects the activation status of splenic dendritic cells in response to SIRPa/CD47 inhibitors or to infused sheep red blood cells (RBC).
After 6 or 24 hours, mice were euthanized and their spleens excised, dissociated, and assessed by flow cytometry for populations of activated CD4+ dendritic cells (DCs) (FIG. 9A, left panel) or CD8+dendritic cells (FIG. 9A, right panel); both populations of dendritic cells were also positive for MHC II (I-Ab), CD11c, and DC1R2.

[5] = target: recombinant mouse CD47 and CD40 (Mus musculus, UniProt P27512+Q61735); assay: Dual functional ELISA of the murine surrogate; format: binding
[6] = test system: A20 lymphoma; assay: Murine phagocytosis assay, BMDMs with A20 lymphoma cells; format: cell-based
[7] = test system: CT26 tumors; assay: Syngeneic CT26 colon tumor model versus CD40/CD47 antibodies (Example 11); format: in vivo, mice
Experimental: FIG. 20C: a similar CT26 experiment was initiated as described in FIG. 20A above, however mice were pre-treated on days −1, 1, and 10 with IP injections of 100 μg of either or both CD4/CD8 depleting antibodies. Mice were inoculated with CT26 tumors on day 0 and treated at a later starting date than FIG. 20A with mSIRPα-Fc-CD40L ARC on days 7, 9, and 11. […] In FIG. 20D and FIG. 20E, BALB/C mice were inoculated with WEHI3 tumors (FIG. 20D) or A20 tumors (FIG. 20E) subcutaneously on the rear flank, and then treated via IP injection with anti-CD20 or mSIRPα-Fc-CD40L on days 7, 9, and 11 (WEHI3) or days 10, 12, and 14 (A20); when tumors were established and reached approximately 57-60 mm^3. A cohort of mice were pre-treated with an interferon alpha receptor 1 (IFNAR1) blocking antibody ([…] by IP injection) on days -1, 1, and 10 (WEHI3) or on days −1, 1, and 13 (A20). FIG. 20F to FIG. 20H are graphs showing blockade of CD4, CD8, and IFNAR1. Peripheral blood analysis by flow cytometry of CD4 (FIG. 20F), CD8 (FIG. 20G), and IFNAR1 (FIG. 20H) depletion following depleting antibody treatment corresponding to FIG. 20C to FIG. 20E. Samples were normalized to untreated animals.
Implanted CT26 tumors were allowed to grow to ˜30 mm^3 before treatment was initiated with a fixed regimen of two doses of either a CD40 agonist antibody (clone FGK4.5), a CD47 blocking antibody (clone MIAP301), a combination of the two antibodies, or the murine SIRPα-Fc-CD40L chimeric protein. […] Based on this observation, these experiments were repeated in the setting of antibody-mediated depletion of both CD4+ and CD8+ cells (FIG. 20C).
CD4 and CD8 depletion was verified in the peripheral blood at multiple time points during the experiment (see, FIG. 20F and FIG. 20G).

T1 sequence (P27512 20-289): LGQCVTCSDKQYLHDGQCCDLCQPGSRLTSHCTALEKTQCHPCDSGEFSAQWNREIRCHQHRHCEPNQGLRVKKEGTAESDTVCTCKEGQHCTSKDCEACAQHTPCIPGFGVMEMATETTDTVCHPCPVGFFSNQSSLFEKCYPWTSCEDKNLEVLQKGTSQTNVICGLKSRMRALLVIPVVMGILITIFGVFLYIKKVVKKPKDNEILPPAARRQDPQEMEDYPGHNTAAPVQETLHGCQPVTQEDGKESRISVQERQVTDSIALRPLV

B1: mSIRPα-Fc-CD40L: Murine version of SIRPα-Fc-CD40L, made from murine proteins to assess activity in vivo (protein)
chain: KELKVTQPEKSVSVAAGDSTVLNCTLTSLLPVGPIRWYRGVGPSRLLIYSFAGEYVPRIRNVSDTTKRNNMDFSIRISNVTPADAGIYYCVKFQKGSSEPDTEIQSGGGTEVYVLAKPSPPEVSGPADRGIPDQKVNFTCKSHGFSPRNITLKWFKDGQELHPLETTVNPSGKNVSYNISSTVRVVLNSMDVNSKVICEVAHITLDRSPLRGIANLSNFIRVSPTVKVTQQSPTSMNQVNLTCRAERFYPEDLQLIWLENGNVSRNDTPKNLTKNTDGTYNYTSLFLVNSSAHREDVVFTCQVKHDQQPAITRNHTVLGFAHSSDQGSMQTFPDNNATHNWNVPRDCGCKPCICTVPEVSSVFIFPPKPKDVLTITLTPKVTCVVVDISKDDPEVQFSWFVDDVEVHTAQTQPREEQFNSTFRSVSELPIMHQDWLNGKEFKCRVNSAAFPAPIEKTISKTKGRPKAPQVYTIPPPKEQMAKDKVSLTCMITDFFPEDITVEWQWNGQPAENYKNTQPIMNTNGSYFVYSKLNVQKSNWEAGNTFTCSVLHEGLHNHHTEKSLSHSPGKHRRLDKVEEEVNLHEDFVFIKKLKRCNKGEGSLSLLNCEEMRRQFEDLVKDITLNKEEKKENSFEMQRGDEDPQIAAHVVSEANSNAASVLQWAKKGYYTMKSNLVMLENGKQLTVKREGLYYVYTQVTFCSNREPSSQRPFIVGLWLKPSSGSERILLKAANTHSSSQLCEQQSVHLGGVFELQAGASVFVNVTEASQVIHRVGFSSFGLLKL
In the case of B1, the “activation of the NFκB pathway, murine CD40 reporter” value [1] is reported as “consistently stimulated potent activation of the NFκB pathway”, the “overall CD45+ peripheral lymphocytes” value ([2]; 24 hours following a single IP injection (300 μg)) is reported as “decrease in overall CD45+ peripheral lymphocytes” and the “CD8+ dendritic cells in peripheral blood” value ([2]; mice) is reported as “significant increase in CD8+ dendritic cells”. For the same molecule, the “CD40+ B cells in peripheral blood” value ([2]; mice) was “peripheral decrease in CD40+ B cells”, the phagocytic activity [3] was “induced strong phagocytic activity” and the “phagocytosis index compared with CD47 blocking antibody” value [3] was “higher phagocytosis index than the CD47 blocking antibody”. For the same molecule, the “splenic CD4+ and CD8α+ DCs expressing high levels of MHCII, CD80, and CD86” value [4] was “greatly upregulated splenic CD4+ and CD8α+ DCs”, the “simultaneous binding to recombinant mouse CD47 and CD40” value [5] was “simultaneous binding” and the phagocytic activity [6] was “induced strong phagocytic activity”. For the same molecule, the “phagocytosis index compared with CD47 blocking antibody” value [6] was “higher phagocytosis index than the CD47 blocking antibody”, the “rejection of a secondary tumor challenge among mice that rejected the primary tumor” value ([7]; no additional treatment) was 60% and the “mice rejecting primary tumors” value ([7]; two doses, treatment started at ˜30 mm^3) was 62%. The “tumor growth / survival” value ([7]; two doses, treatment started at ˜30 mm^3, versus vehicle controls) was “significant prolongation in tumor growth and survival”.
